Data on 30 sequences can be found in the nanobody polyreactivity screen of Harvey et al. (2022).

The nature of this series: yeast display, Sf9 membrane polyspecificity reagent, FACS + sequencing; frameworks hold sequencing errors. The method, boiled down: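 Polyreactivity labels are assigned by the sorting gate from which each nanobody was recovered. The gates were low and high (top ~1%), set on anti-HA fluorescence for expression and streptavidin fluorescence for reagent binding. Before sorting, galactose-induced (36–48 hours) yeast display cells were stained for 1 hour at 4 °C with 10% biotinylated, detergent-solubilized Sf9 membrane reagent.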
As to “QVQLVESGGGLVQAGGSLRLSCAASGFTFYSYAMGWYRQAPGKERELVAAITKRGGSTSYADSVKGRFTISRDNAKNTVYLQMNSLKPEDTAVYYCNRRATKAQYGDEVDYWGQGTQVTVSS”, the “polyreactivity (PSR sort gate)” value is listed as “high polyreactivity”. As for “QVQLVESGGGLVQAGGSLRLSCAASGFTFYSYAMGWYRQAPGKERELVAVISKRGGSTRYADSVKGRFTISRDNAKNTVYLQMNSLKPEDTAVYYCNADQHSITYNEFDYWGQGTQVTVSS”, the “polyreactivity (PSR sort gate)” value was “low polyreactivity”. With “QVQLVESGGGLVQAGGSLRLSCAASGFTFYSYDMGWYRQAPGKERELVAVITERGSSTYYADSVKGRFTISRDNAKNTVYLQMNSLKPEDTAVYYCAAYSEYYGVYYWGQGTQVTVSS”, the “polyreactivity (PSR sort gate)” value is listed as “low polyreactivity”. With “QVQLVESGGGLVQAGGSLRLSCAASGFTFYTKAMGWYRQAPGKERELVAGINSGSSTYYADSVKGRFTISRDNAKNTVYLQMNSLKPEDTAVYYCAARRSRYILRGFGYWGQGTQVTVSS”, the “polyreactivity (PSR sort gate)” value is “high polyreactivity”. As for “QVQLVESGGGLVQAGGSLRLSCAASGFTFYTNAMGWYRQAPGKERDMVAVITSGGNTYYADSVKGRFTISRDNAKNTVYLQMNSLKPEDTAVYYFAAIPKRPIRFDYWGQGTQVTVSS”, the “polyreactivity (PSR sort gate)” value is recorded as “high polyreactivity”. With “QVQLVESGGGLVQAGGSLRLSCAASGFTFYTNAMGWYRQATGKERELVAVITSGGNTYYADSVKGRFTISRDNAKYTVYLQMNSLKPEDTAVYYCAAKPKRPIRFDYWGQGTQVTVSS”, the “polyreactivity (PSR sort gate)” value was “high polyreactivity”. Then “QVQLVESGGGLVQAGGSLRLSCAASGFTFYTYAMGWYRQAPGKERELVAAITGSGGRTYYADSVKGRFTISRDNAKNTVYLQMNSLKPEDTAVYYCAALYVYRPRTPYGYWGQGTQVTVSS”, with “high polyreactivity”. Take “QVQLVESGGGLVQAGGSLRLSCAASGFTFYTYAMGWYRQAPGKERELVAAITSSGGSTYYADSVKGRFTISRDHAKNTVYLQMNSLKPEDTAVYYCKAVSYYLGDDYWGPGTQVTVSS”: the “polyreactivity (PSR sort gate)” value is listed as “high polyreactivity”. In the case of “QVQLVESGGGLVQAGGSLRLSCAASGFTFYVNAMGWYRQAPGKEREFVAAISSSGASTRYADSVKGRFTISRDNAKNTVYLQMNSLKPEDTAVYYCAADAPAWILEAYGYWGQGTQVTVSS”, the “polyreactivity (PSR sort gate)” value is recorded as “low polyreactivity”. On to “QVQLVESGGGLVQAGGSLRLSCAASGFTFYVNAMGWYRQAPGKERELVAAITDDGDSTYYADSVKGRFTISRDNAKNTVYLQMNSLKPEDTAVYYCNTVYGPDLYGTEYDYWGQGTQVTVSS”, for which the “polyreactivity (PSR sort gate)” value is on record as “low polyreactivity”. Turning to “QVQLVESGGGLVQAGGSLRLSCAASGFTFYVYTMGWYRQAPGKERELVAAITWSGGSTYYADSVKGRFTISRDNAKNNVYLQMNSLKPEDTAVYYCNRVGYWVGHDSWGQGTQVTVSS”, the “polyreactivity (PSR sort gate)” value is reported as “high polyreactivity”. Turning to “QVQLVESGGGLVQAGGSLRLSCAASGFTFYWYAMGWYRQAPGKERELVAAISNRGGSTYYADSVKGRFTISRDNAKNTVYLQMNSLKPEDTAVYYCATESRGVGAARYDYWGQGTQVTVSS”, the “polyreactivity (PSR sort gate)” value was “high polyreactivity”. For the sequence “QVQLVESGGGLVQAGGSLRLSCAASGFTFYYYAMGWYRQAPGKERELVAAISGGGGSTYYADSVKGRFTISRDNAKNTVYLQMNSLKPEDTAVYYCAAVGSWRYNYDYDYWGQGTQVTVSS”, the “polyreactivity (PSR sort gate)” value is “high polyreactivity”. Turning to “QVQLVESGGGLVQAGGSLRLSCAASGFTFYYYAMGWYRQAPGKERELVAAISYSGGSTYYADSVKGRFTISRDNAKNTVYLQMNSLKPEDTAVYYCAALYTGESGYWGQGTQVTVSS”, the “polyreactivity (PSR sort gate)” value was “high polyreactivity”. As for “QVQLVESGGGLVQAGGSLRLSCAASGFTFYYYAMGWYRQAPGKERELVAAITKNGGRTFYADSVKGRFTISRDNAKNTVYLQMNSLKPEDTAVYYCATVGNWPDYYYWGQGTQVTVSS”, the “polyreactivity (PSR sort gate)” value is on record as “high polyreactivity”. Then “QVQLVESGGGLVQAGGSLRLSCAASGFTFYYYAMGWYRQAPGKERELVASISSSGGSTYYADSVKGRFTISRDNAKNTVYLQMNSLKPEDTAGYYCARYRRRYDTYPGDYWGQGTQVTVSS”, with “high polyreactivity”. The same measure for “QVQLVESGGGLVQAGGSLRLSCAASGFTFYYYAMGWYRQATGKVRELVAAISARGGSTYYADSVKGRFTISRDNAKNTVYLQMNSLKPEDTAVYYCNAVTGHTSYEYDYWGQGTQVTVSS”: “high polyreactivity”; for “QVQLVESGGGLVQAGGSLRLSCAASGFTGGRYAMGWYRQEPGKERELVDDISWSGGGTYYADSVKGRFTISRDNAKNTVYLQMNSLKPEDTAVYYCAAYWYRSYKRYGYWGQGTQVTVSS”: “high polyreactivity”.

In the case of “QVQLVESGGGLVQAGGSLRLSCAASGFTGVNAMGWYRQAPGKERELVARISNSGGSTYYADSVKGRFTISRDNAKNTVYLQMNSLKPEDTAVYYCNADSYYWGQGTQVTVSS”, the “polyreactivity (PSR sort gate)” value is recorded as “high polyreactivity”. For the sequence “QVQLVESGGGLVQAGGSLRLSCAASGFTIAKYAMGWYRQAPGKERELVAAISSSGGRTYYADSVKGRFTISRDNAKNTVYLQMNSLKPEDTAVYYCAADFSGPFDYWGQGTQVTVSS”, the “polyreactivity (PSR sort gate)” value is “high polyreactivity”. Turning to “QVQLVESGGGLVQAGGSLRLSCAASGFTIAVYVMGWYRQAPGNERELVATISFSVGSTYYADSVKGRFTISRDNAKNTVYLLMNCLKPEVTAVYYCNADPPPEYYPDKDNSWGQGTQVTVSS”, the “polyreactivity (PSR sort gate)” value is “low polyreactivity”. As for “QVQLVESGGGLVQAGGSLRLSCAASGFTICTYAMGWYRQAPGKERELVAAIDSGGSTYYADSVMGRFTISRDNAKTTVYLQMNSLKPEDTAVYYCNAGPSVTSGYDYDYWGQGTQVTVSS”, the “polyreactivity (PSR sort gate)” value is given as “low polyreactivity”. As for “QVQLVESGGGLVQAGGSLRLSCAASGFTIDKNVMGWYRQAPGKERELVAAISVRGGTTYYADSVKGRFTISRDNAKNTVYLQMNSLKPEDTAVYYCAARAYGPPARYDSWGQGTQVTVSS”, the “polyreactivity (PSR sort gate)” value is listed as “low polyreactivity”. Take “QVQLVESGGGLVQAGGSLRLSCAASGFTIGDNAMGWSRQAPGKERELVAAITWSGGSTYYADSVKGRFTISRDNAKNTVYLQMNSLKPEDTAVYYCAADKLRELDYWGQGTEVTVSS”: the “polyreactivity (PSR sort gate)” value is “low polyreactivity”.

As for “QVQLVESGGGLVQAGGSLRLSCAASGFTIGRYAMGWYRQAPGKERELVAAISKNGGRTYYADSVKGRFTISRDNAKNTVYLQMNSLKPEDTAVYYCNTDWYYTGRVHGFDYWGQGTQVTVSS”, the “polyreactivity (PSR sort gate)” value was “high polyreactivity”. “QVQLVESGGGLVQAGGSLRLSCAASGFTIGSYAMGWYRQAPGKEREFVAAIRRSGSSTYYADSVKGRFTISRDNAKNTVYLQMNSLKPEDTAVYYCAADVYRRLRRYRYYYWGQGTQVTVSS”: the “polyreactivity (PSR sort gate)” value is “low polyreactivity”. With “QVQLVESGGGLVQAGGSLRLSCAASGFTIISYTMGWYRQAPGKDRELVAAIRGGGRTYYADSVKGRFTISRDNAKNTVYLQMNSLKPEDTAVYYCAARLRYGGHYDYWGQGTQVTVSS”, the “polyreactivity (PSR sort gate)” value is “high polyreactivity”. Regarding “QVQLVESGGGLVQAGGSLRLSCAASGFTINFYSLGWYRQAPGKERELVAAITASGGGSTYYADSVKGRFTISRDNAKNTVYLQMNSLKQEDTAVYYCNADFTGSFYTYEYWGQGTQVTVAS”, the “polyreactivity (PSR sort gate)” value is reported as “low polyreactivity”. With “QVQLVESGGGLVQAGGSLRLSCAASGFTIQRYAMGWYRQAPGKERELVAAITSGGSTYYADSVKGSFTISRDNAKNTVYFQMNSLKPEDTSVYYCATRAVWSSWGRRYDSWGQGTQVTVSS”, the “polyreactivity (PSR sort gate)” value was “high polyreactivity”. Consider “QVQLVESGGGLVQAGGSLRLSCAASGFTIRRNAMGWYRQAPGKERELVAAISRSGGSTYADSVKGRFTISRDNAKNTVYLQMNSLKPEDTAVYYFASDHSDYRYTYTALIAEFYYWGQGTQVTVSS”, for which the “polyreactivity (PSR sort gate)” value was “low polyreactivity”.
